According to IntAct's records for PubMed 23202584:

B1: Ubiquitin-like protein ATG12 (Homo sapiens), O94817 (parent)
chain: MAEEPQSVLQLPTSIAAGGEGLTDVSPETTTPEPPSSAAVSPGTEEPAGDTKKKIDILLKAVGDTPIMKTKKWAVERTRTIQGLIDFIKKFLKLVASEQLFIYVNQSFAPSPDQEVGTLYECFGSDGKLVLHYCKSQAWG

Variants of: B1
Settings: with atg3_mouse Atg3, Q9CPX6
Chain of atg3_mouse Atg3, Q9CPX6 (Q9CPX6 whole entry): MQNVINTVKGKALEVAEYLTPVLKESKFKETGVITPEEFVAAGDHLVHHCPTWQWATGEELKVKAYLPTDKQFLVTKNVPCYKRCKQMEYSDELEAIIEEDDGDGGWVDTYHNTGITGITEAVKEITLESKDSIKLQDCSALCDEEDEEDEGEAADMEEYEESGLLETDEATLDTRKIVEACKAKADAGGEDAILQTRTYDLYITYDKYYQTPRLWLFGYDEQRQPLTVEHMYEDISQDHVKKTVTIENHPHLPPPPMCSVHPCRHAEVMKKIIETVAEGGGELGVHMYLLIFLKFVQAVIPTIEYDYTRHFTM

Effect of a mutation on the interaction, disrupting interaction strength:
K54D
K72D
W73A
